Test results reported in patent publication US20040115622A1.
No end group written: not given here.

T1: HLA-DR molecule encoded by the allele DRB4*0101 (human)
T1 chain 1: not shown
T1 chain 2: not shown

T2: HLA-DR molecule encoded by the allele DRB1*1301 (human)
T2 chain 1: not shown
T2 chain 2: not shown

T3: HLA-DR molecule encoded by the allele DRB3*0101 (human)
T3 chain 1: not shown
T3 chain 2: not shown


Legend:
[1] = molecular target: HLA-DR molecule encoded by the allele DRB1*0701 (human); test: competition ELISA vs biotinylated YKL
[2] = molecular target: T1, HLA-DR molecule encoded by the allele …; test: competition ELISA vs biotinylated E2/E168
[3] = molecular target: HLA-DR molecule encoded by the allele DRB1*0101 (human); test: competition ELISA vs biotinylated HA 306-318
[4] = molecular target: HLA-DR molecule encoded by the allele DRB1*0401 (human); test: competition ELISA vs biotinylated HA 306-318
[5] = molecular target: HLA-DR molecule encoded by the allele DRB1*1101 (human); test: competition ELISA vs biotinylated HA 306-318
[6] = molecular target: T2, HLA-DR molecule encoded by the allele …; test: competition ELISA, nonbiotinylated peptide vs its biotinylated form
[7] = molecular target: HLA-DR molecule encoded by the allele DRB5*0101 (human); test: competition ELISA vs biotinylated HA 306-318
[8] = molecular target: HLA-DR molecule encoded by the allele DRB1*1501 (human); test: competition ELISA vs biotinylated A3 152-166
[9] = molecular target: T3, HLA-DR molecule encoded by the allele …; test: competition ELISA vs biotinylated Lol 191-210
[10] = molecular target: T2, HLA-DR molecule encoded by the allele …; test: competition ELISA vs biotinylated B1 21-36
[11] = molecular target: HLA-DR molecule encoded by the allele DRB1*0301 (human); test: competition ELISA vs biotinylated MT 2-16

Row | Binder | IC50 [1] [nM] | IC50 [2] [nM] | IC50 [3] [nM] | IC50 [4] [nM] | IC50 [5] [nM] | IC50 [6] [nM] | IC50 [7] [nM] | IC50 [8] [nM] | IC50 [9] [nM] | IC50 [10] [nM] | IC50 [11] [nM]
1 | LEKHGAITSSNTAATNAACAWLEAQEEEEVGFPVT (modifications not checked) [Nef3 peptide (positions 37-71 of the HIV-1 Nef protein, Bru strain), P03406 37-71] | 3000 | 8000 | 2500 | 70 | 2000 | – | – | – | – | – | –
2 | TERVRLVTRHIYNREE (not fully specified) [B1 21-36 peptide, nonbiotinylated] | – | – | – | – | – | 330 | – | – | – | – | –
3 | AAVDLSHFLKEKGGL (modifications not checked) [Nef4.7 peptide (positions 83-97 of the HIV-1 Nef protein, Bru strain), P03406 83-97] | – | – | 500 | – | 7500 | – | 3250 | – | – | – | –
4 | DLSHFLKEKGGLEGL (modifications not checked) [Nef5 peptide (positions 86-100 of the HIV-1 Nef protein, Bru strain), P03406 86-100] | – | – | 6000 | – | – | – | 8000 | – | – | – | –
5 | LIHSQRRQDILDLWI (modifications not checked) [Nef6 peptide (positions 100-114 of the HIV-1 Nef protein, Bru strain), P03406 100-114] | – | 1750 | – | – | 3000 | – | – | 1750 | – | – | –
6 | WIYHTQGYFPDWQNYT (modifications not checked) [Nef7 peptide (positions 113-128 of the HIV-1 Nef protein, Bru strain), P03406 113-128] | 4000 | – | – | – | – | – | – | 9000 | 75 | – | –
7 | MGGKWSKSSVVGWPTVRERMRRAEPAADGVGAASRD (modifications not checked) [Nef1 peptide (positions 1-36 of the HIV-1 Nef protein, Bru strain), P03406 1-36] | 40 | 2500 | 700 | 250 | 550 | – | 400 | 40 | – | 325 | –
8 | TQGYFPDWQNYTPGPG (modifications not checked) [Nef8 peptide (positions 117-132 of the HIV-1 Nef protein, Bru strain), P03406 117-132] | – | – | – | 8000 | – | – | – | – | 120 | – | –
9 | GVRYPLTFGWCYKLVP (modifications not checked) [Nef9 peptide (positions 132-147 of the HIV-1 Nef protein, Bru strain), P03406 132-147] | 5500 | – | 8.5 | – | – | – | 8000 | 1500 | – | – | –
10 | LTFGWCYKLVPVEPDKVEEANKGENTSLLHPV (modifications not checked) [Nef10 peptide (positions 137-168 of the HIV-1 Nef protein, Bru strain), P03406 137-168] | 65 | 55 | 650 | 150 | 45 | – | 250 | 1250 | 3500 | – | 175
11 | LTFGWCYKLVPVEPD (modifications not checked) [Nef10.1 peptide (positions 137-151 of the HIV-1 Nef protein, Bru strain), P03406 137-151] | 650 | 2200 | 150 | 2000 | 95 | – | 4500 | – | – | – | –
12 | FGWCYKLVPVEPDKV (modifications not checked) [Nef10.2 peptide (positions 139-153 of the HIV-1 Nef protein, Bru strain), P03406 139-153] | 120 | 605 | 85 | 250 | 250 | – | 900 | – | – | – | –
13 | WCYKLVPVEPDKVEE (modifications not checked) [Nef10.3 peptide (positions 141-155 of the HIV-1 Nef protein, Bru strain), P03406 141-155] | 250 | 1030 | 850 | 250 | 350 | – | 1500 | – | – | – | –
14 | YKLVPVEPDKVEEAN (modifications not checked) [Nef10.4 peptide (positions 143-157 of the HIV-1 Nef protein, Bru strain), P03406 143-157] | 2250 | 1730 | 9000 | 2750 | – | – | – | – | – | – | 1470
15 | VPVEPDKVEEANKGE (modifications not checked) [Nef10.5 peptide (positions 146-160 of the HIV-1 Nef protein, Bru strain), P03406 146-160] | – | – | 550 | 2000 | – | – | – | – | – | – | 2500
16 | DKVEEANKGENTSLL (modifications not checked) [Nef10.6 peptide (positions 151-165 of the HIV-1 Nef protein, Bru strain), P03406 151-165] | – | – | – | – | – | – | 1500 | – | – | – | –

Row | Binder | IC50 [1] [nM] | IC50 [2] [nM] | IC50 [3] [nM] | IC50 [4] [nM] | IC50 [5] [nM] | IC50 [6] [nM] | IC50 [7] [nM] | IC50 [8] [nM] | IC50 [9] [nM] | IC50 [10] [nM] | IC50 [11] [nM]
17 | EANKGENTSLLHPVSLHGMDDPEREVLEWRF (modifications not checked) [Nef11 peptide (positions 155-185 of the HIV-1 Nef protein, Bru strain), P03406 155-185] | 3750 | 450 | 2000 | – | 3000 | – | 3000 | 50 | – | – | –
18 | GKWSKSSVVGWPTVR (modifications not checked) [Nef1.1 peptide (positions 3-17 of the HIV-1 Nef protein, Bru strain), P03406 3-17] | 48 | – | 1250 | 700 | 1750 | – | – | 150 | – | 3000 | –
19 | DPEREVLEWRFDSRLA (modifications not checked) [Nef12 peptide (positions 175-190 of the HIV-1 Nef protein, Bru strain), P03406 175-190] | 700 | 275 | – | 2500 | 125 | – | – | 13 | 145 | – | 3500
20 | EWRFDSRLAFHHVAREL (modifications not checked) [Nef13 peptide (positions 182-198 of the HIV-1 Nef protein, Bru strain), P03406 182-198] | 150 | 6330 | 5000 | 3250 | 48 | – | 10 | – | 250 | 750 | 55
21 | REVLEWRFDSRLAFH (modifications not checked) [Nef13.1 peptide (positions 178-192 of the HIV-1 Nef protein, Bru strain), P03406 178-192] | 350 | – | – | – | 8 | – | – | – | 28 | 867 | 125
22 | LEWRFDSRLAFHHVA (modifications not checked) [Nef13.2 peptide (positions 181-195 of the HIV-1 Nef protein, Bru strain), P03406 181-195] | 933 | – | – | – | 18 | – | 6 | – | 60 | 350 | 73
23 | WRFDSRLAFHHVARE (modifications not checked) [Nef13.3 peptide (positions 183-197 of the HIV-1 Nef protein, Bru strain), P03406 183-197] | 900 | – | – | – | 11 | – | 15 | – | 5000 | 250 | 567
24 | SRLAFHHVARELHPE (modifications not checked) [Nef13.4 peptide (positions 187-201 of the HIV-1 Nef protein, Bru strain), P03406 187-201] | 225 | – | – | – | 6 | – | 300 | – | – | 350 | –
25 | LAFHHVARELHPEYF (modifications not checked) [Nef13.5 peptide (positions 189-203 of the HIV-1 Nef protein, Bru strain), P03406 189-203] | 250 | – | – | – | 8 | – | 600 | – | – | 600 | 1470
26 | FHHVARELHPEYFKN (modifications not checked) [Nef13.6 peptide (positions 191-205 of the HIV-1 Nef protein, Bru strain), P03406 191-205] | 2500 | – | – | – | 550 | – | 8000 | – | – | 3000 | 700
27 | SSVVGWPTVRERMRR (modifications not checked) [Nef1.2 peptide (positions 8-22 of the HIV-1 Nef protein, Bru strain), P03406 8-22] | – | – | – | – | 7500 | – | – | 200 | – | 700 | –
28 | VGWPTVRERMRRAEP (modifications not checked) [Nef1.3 peptide (positions 11-25 of the HIV-1 Nef protein, Bru strain), P03406 11-25] | – | – | – | – | – | – | – | – | – | 700 | –
29 | PTVRERMRRAEPAAD (modifications not checked) [Nef1.4 peptide (positions 14-28 of the HIV-1 Nef protein, Bru strain), P03406 14-28] | – | – | 1400 | – | 1250 | – | – | – | – | 750 | –
30 | ERMRRAEPAADGVGA (modifications not checked) [Nef1.5 peptide (positions 18-32 of the HIV-1 Nef protein, Bru strain), P03406 18-32] | – | – | 2750 | – | – | – | – | – | – | – | –
31 | PAADGVGAASRDLEK (modifications not checked) [Nef2 peptide (positions 25-39 of the HIV-1 Nef protein, Bru strain), P03406 25-39] | – | – | – | – | – | – | – | – | – | – | 4250
